B1: Azoarcus group I ribozyme (parent)
chain: GUGCCUUGCGCCGGGAAACCACGCAAGGGAUGGUGUCAAAUUCGGCGAAACCUAAGCGCCCGCCCGGGCGUAUGGCAACGCCGAGCCAAGCUUCGGCGCCUGCGCCGAUGAAGGUGUAGAGACUAGACGGCACCCACCUAAGGCAAACGCUAUGGUGAAGGCAUAGUCCAGGGAGUGGCGAAAGUCACACAAACCGG

Variants of: B1
Assay: reverse-splicing fitness (ratio to wild type); higher = more active; in vitro selection; Mg2+ level not given
Outline: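 An in vitro group I ribozyme library with randomized positions was T7-transcribed and gel-purified. In triplicate, 10 pmol RNA in EPPS pH 7.5 was reacted with 50 pmoles of a 30-nt RNA substrate for 1 h at 37 °C across several added MgCl2 levels (1–48 mM), then stopped with EDTA. Products were reverse transcribed from a substrate-complementary primer, PCR-amplified and sequenced (HiSeq 4000). Fitness is a variant's read proportion after selection over that before, normalised to wild type.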

Row | Variant | reverse-splicing fitness
1 | GUGCCUUGCGCCGGGAAACCACGCAAGGGAUGGUGUCAAAUUCGGCGAAACCUAAGCGCCCGCCCGGGCGUAUGGCAACGCUGAGCCAAGCUUCGGCGCCUGCGCCGAUGCAGGUGUAGCGACUAGACGGCACCCACCUAAGGCCAACGUUAUGGUGAAGGCAUAGUCCAGGGAGCGGCGAAAGUCACACAAACCGG [C82U A111C A120C A145C C150U U176C] | 0.0102
2 | GUGCCUUGCGCCGGGAAACCACGCAAGGGAUGGUGUCAAAUUCGGCGAAACCUAAGCGCCCGCCCGGGCGUAUGGCAACGCUGAGCCAAGCUUCGGCGCCUGCGCCGAUGCAGGUGUAGCGACUAGACGGCACCCACCUAAGGCCAACGUUAUGGUGAAGGCAUAGUCCAGGGAGGGGCGAAAGUCACACAAACCGG [C82U A111C A120C A145C C150U U176G] | 0.0052
3 | GUGCCUUGCGCCGGGAAACCACGCAAGGGAUGGUGUCAAAUUCGGCGAAACCUAAGCGCCCGCCCGGGCGUAUGGCAACGCUGAGCCAAGCUUCGGCGCCUGCGCCGAUGCAGGUGUAGCGACUAGACGGCACCCACCUAAGGCCAACGUUAUGGUGAAGGCAUAGUCCAGGGAGAGGCGAAAGUCACACAAACCGG [C82U A111C A120C A145C C150U U176A] | 0.00836
4 | GUGCCUUGCGCCGGGAAACCACGCAAGGGAUGGUGUCAAAUUCGGCGAAACCUAAGCGCCCGCCCGGGCGUAUGGCAACGCUGAGCCAAGCUUCGGCGCCUGCGCCGAUGCAGGUGUAGCGACUAGACGGCACCCACCUAAGGCCAACGUUAUGGUGAAGGCAUAGUCUAGGGAGGGGCGAAAGUCACACAAACCGG [C82U A111C A120C A145C C150U C169U U176G] | 0.0068
5 | GUGCCUUGCGCCGGGAAACCACGCAAGGGAUGGUGUCAAAUUCGGCGAAACCUAAGCGCCCGCCCGGGCGUAUGGCAACGCUGAGCCAAGCUUCGGCGCCUGCGCCGAUGCAGGUGUAGCGACUAGACGGCACCCACCUAAGGCCAACGUUAUGGUGAAGGCAUAGUCUAGGGAGCGGCGAAAGUCACACAAACCGG [C82U A111C A120C A145C C150U C169U U176C] | 0.0122
6 | GUGCCUUGCGCCGGGAAACCACGCAAGGGAUGGUGUCAAAUUCGGCGAAACCUAAGCGCCCGCCCGGGCGUAUGGCAACGCUGAGCCAAGCUUCGGCGCCUGCGCCGAUGCAGGUGUAGCGACUAGACGGCACCCACCUAAGGCCAACGUUAUGGUGAAGGCAUAGUCUAGGGAGAGGCGAAAGUCACACAAACCGG [C82U A111C A120C A145C C150U C169U U176A] | 0.0145
7 | GUGCCUUGCGCCGGGAAACCACGCAAGGGAUGGUGUCAAAUUCGGCGAAACCUAAGCGCCCGCCCGGGCGUAUGGCAACGCUGAGCCAAGCUUCGGCGCCUGCGCCGAUGCAGGUGUAGCGACUAGACGGCACCCACCUAAGGCCAACGCUAUGGUGAAGGCAUAGUCAAGGGAGAGGCGAAAGUCACACAAACCGG [C82U A111C A120C A145C C169A U176A] | 0.0111
8 | GUGCCUUGCGCCGGGAAACCACGCAAGGGAUGGUGUCAAAUUCGGCGAAACCUAAGCGCCCGCCCGGGCGUAUGGCAACGCUGAGCCAAGCUUCGGCGCCUGCGCCGAUGCAGGUGUAGCGACUAGACGGCACCCACCUAAGGCCAACGCUAUGGUGAAGGCAUAGUCAAGGGAGCGGCGAAAGUCACACAAACCGG [C82U A111C A120C A145C C169A U176C] | 0.00743
9 | GUGCCUUGCGCCGGGAAACCACGCAAGGGAUGGUGUCAAAUUCGGCGAAACCUAAGCGCCCGCCCGGGCGUAUGGCAACGCUGAGCCAAGCUUCGGCGCCUGCGCCGAUGCAGGUGUAGCGACUAGACGGCACCCACCUAAGGCCAACGCUAUGGUGAAGGCAUAGUCAAGGGAGGGGCGAAAGUCACACAAACCGG [C82U A111C A120C A145C C169A U176G] | 0.00387
10 | GUGCCUUGCGCCGGGAAACCACGCAAGGGAUGGUGUCAAAUUCGGCGAAACCUAAGCGCCCGCCCGGGCGUAUGGCAACGCUGAGCCAAGCUUCGGCGCCUGCGCCGAUGCAGGUGUAGCGACUAGACGGCACCCACCUAAGGCGAACGAUAUGGUGAAGGCAUAGUCGAGGGAGUGGCGAAAGUCACACAAACCGG [C82U A111C A120C A145G C150A C169G] | 0.00891
11 | GUGCCUUGCGCCGGGAAACCACGCAAGGGAUGGUGUCAAAUUCGGCGAAACCUAAGCGCCCGCCCGGGCGUAUGGCAACGCUGAGCCAAGCUUCGGCGCCUGCGCCGAUGCAGGUGUAGCGACUAGACGGCACCCACCUAAGGCGAACGAUAUGGUGAAGGCAUAGUCAAGGGAGUGGCGAAAGUCACACAAACCGG [C82U A111C A120C A145G C150A C169A] | 0.00917
12 | GUGCCUUGCGCCGGGAAACCACGCAAGGGAUGGUGUCAAAUUCGGCGAAACCUAAGCGCCCGCCCGGGCGUAUGGCAACGCUGAGCCAAGCUUCGGCGCCUGCGCCGAUGCAGGUGUAGCGACUAGACGGCACCCACCUAAGGCCAACGCUAUGGUGAAGGCAUAGUCUAGGGAGUGGCGAAAGUCACACAAACCGG [C82U A111C A120C A145C C169U] | 0.0105
13 | GUGCCUUGCGCCGGGAAACCACGCAAGGGAUGGUGUCAAAUUCGGCGAAACCUAAGCGCCCGCCCGGGCGUAUGGCAACGCUGAGCCAAGCUUCGGCGCCUGCGCCGAUGCAGGUGUAGCGACUAGACGGCACCCACCUAAGGCCAACGCUAUGGUGAAGGCAUAGUCGAGGGAGUGGCGAAAGUCACACAAACCGG [C82U A111C A120C A145C C169G] | 0.00865
14 | GUGCCUUGCGCCGGGAAACCACGCAAGGGAUGGUGUCAAAUUCGGCGAAACCUAAGCGCCCGCCCGGGCGUAUGGCAACGCUGAGCCAAGCUUCGGCGCCUGCGCCGAUGCAGGUGUAGCGACUAGACGGCACCCACCUAAGGCCAACGCUAUGGUGAAGGCAUAGUCAAGGGAGUGGCGAAAGUCACACAAACCGG [C82U A111C A120C A145C C169A] | 0.00667
15 | GUGCCUUGCGCCGGGAAACCACGCAAGGGAUGGUGUCAAAUUCGGCGAAACCUAAGCGCCCGCCCGGGCGUAUGGCAACGCUGAGCCAAGCUUCGGCGCCUGCGCCGAUGCAGGUGUAGCGACUAGACGGCACCCACCUAAGGCCAACGUUAUGGUGAAGGCAUAGUCUAGGGAGUGGCGAAAGUCACACAAACCGG [C82U A111C A120C A145C C150U C169U] | 0.0108
